{
  "source": "paper PMC7027792",
  "about": "“Phenylalanine meta‐Hydroxylase: A Single Residue Mediates Mechanistic Control of Aromatic Amino Acid Hydroxylation” (Chembiochem, 2019)",
  "molecules": {"B1": {"name": "Phe3H (phenylalanine 3-hydroxylase) (Streptomyces coeruleorubidus) (protein)", "chain": "MQGPHAQMTDAAYEIRRSEIAALSTDLAPEDPIPVVEYTEWEHEVWRTVCVDLTARHRTDAAAEYLESAEQLAVPLDHVPQLRDVSGRLGSISGFTFQSAPALVPLREFCGGLANSVFHSTQYLRHPRSPFYTEDPDLLHDLVGHGNVLASDRFARLYRLAGNAAARVHSTEALQFIGKVFWFTLECGVVRERGERKAYGATLVSSYGELDHFRSADFRPLDIKSLADVEYDISTYQPILFEADSMDEVEDTVGSFWDTCDDDSIAALLGGTSRSVTPH", "notes": "purified Phe3H"}, "B2": {"name": "Phe3H (phenylalanine 3-hydroxylase) (Streptomyces coeruleorubidus; T202S) (protein)", "chain": "B1 chain with T202S", "notes": "purified Phe3H"}, "B3": {"name": "Phe3H (phenylalanine 3-hydroxylase) (Streptomyces coeruleorubidus; C187A) (protein)", "chain": "B1 chain with C187A", "notes": "purified Phe3H"}},
  "key": {"[1]": {"target": "T1, Phe3H (phenylalanine 3-hydroxylase) (Streptomyces coeruleorubidus, UniProt F5BFC8)", "T1 construct": "gene pacX; purified Phe3H", "assay": "steady-state inhibition kinetics of hydroxylation", "format": "biochemical", "text": "steady-state inhibition kinetics of hydroxylation on […]"}, "purified protein [2]": {"substrate": "N[C@@H](Cc1ccccc1)C(=O)O", "assay": "purified protein", "format": "biochemical, Streptomyces coeruleorubidus"}, "purified protein [3]": {"substrate": "CC1Nc2nc(N)[nH]c(=O)c2NC1C", "assay": "purified protein", "format": "biochemical, Streptomyces coeruleorubidus", "settings": "pterin varied, fixed L-Phe, pH 8, 28 °C, varied: cofactor"}, "purified protein [4]": {"substrate": "NC(Cc1ccccc1F)C(=O)O", "assay": "purified protein", "format": "biochemical, Streptomyces coeruleorubidus", "settings": "fixed 6MPH4 cofactor, racemic substrate, pH 8, 28 °C"}, "purified protein [5]": {"substrate": "NC(Cc1ccc(F)cc1)C(=O)O", "assay": "purified protein", "format": "biochemical, Streptomyces coeruleorubidus", "settings": "fixed 6MPH4 cofactor, racemic substrate, pH 8, 28 °C"}, "[6]": {"settings": "fixed 6MPH4 cofactor, labelled compound, pH 8, 28 °C"}, "[7]": {"settings": "fixed 6MPH4 cofactor, pH 8, 28 °C"}, "[8]": {"settings": "pterin cofactor (6MPH4 for wild type), labelled compound"}, "[9]": {"settings": "pterin cofactor (6MPH4 for wild type), optimised assay conditions"}},
  "note": "Residue numbers refer to the chain shown, from its start. In names and notes the source's numbering stands.",
  "data": [
    {"molecule": "NC(Cc1cccc(F)c1)C(=O)O", "note": "(racemic) [3F‐Phe]", "values": [
      {"measurement": "Ki", "setting": "[1]", "result": 800, "unit": "µM"}
    ]},
    {"molecule": "B1", "values": [
      {"measurement": "Km", "setting": "purified protein [2]; [6]", "result": "540 ± 70", "unit": "µM"},
      {"measurement": "kcat", "setting": "purified protein [2]; [6]", "result": "0.567 ± 0.0167", "unit": "s⁻¹"},
      {"measurement": "kcat/Km", "setting": "purified protein [2]; [6]", "result": "1050 ± 48.3", "unit": "M⁻¹ s⁻¹"},
      {"measurement": "Km", "setting": "purified protein [2]; [7]", "result": "400 ± 60", "unit": "µM"},
      {"measurement": "kcat", "setting": "purified protein [2]; [7]", "result": "0.633 ± 0.0333", "unit": "s⁻¹"},
      {"measurement": "kcat/Km", "setting": "purified protein [2]; [7]", "result": "1580 ± 118", "unit": "M⁻¹ s⁻¹"},
      {"measurement": "Km", "setting": "purified protein [3]", "result": "98 ± 10", "unit": "µM"},
      {"measurement": "kcat", "setting": "purified protein [3]", "result": "1.3 ± 0.05", "unit": "s⁻¹"},
      {"measurement": "kcat/Km", "setting": "purified protein [3]", "result": "13300 ± 650", "unit": "M⁻¹ s⁻¹"},
      {"measurement": "Km", "setting": "purified protein [4]", "result": "1900 ± 100", "unit": "µM"},
      {"measurement": "kcat", "setting": "purified protein [4]", "result": "0.167 ± 0.00333", "unit": "s⁻¹"},
      {"measurement": "kcat/Km", "setting": "purified protein [4]", "result": "88.3 ± 2", "unit": "M⁻¹ s⁻¹"},
      {"measurement": "Km", "setting": "purified protein [5]", "result": "230 ± 60", "unit": "µM"},
      {"measurement": "kcat", "setting": "purified protein [5]", "result": "0.233 ± 0.00833", "unit": "s⁻¹"},
      {"measurement": "kcat/Km", "setting": "purified protein [5]", "result": "1050 ± 107", "unit": "M⁻¹ s⁻¹"}
    ]},
    {"molecule": "B2", "values": [
      {"measurement": "Km", "setting": "purified protein [2]; [8]", "result": "400 ± 300", "unit": "µM"},
      {"measurement": "kcat", "setting": "purified protein [2]; [8]", "result": "0.217 ± 0.0667", "unit": "s⁻¹"},
      {"measurement": "Km", "setting": "purified protein [2]; [9]", "result": "500 ± 200", "unit": "µM"},
      {"measurement": "kcat", "setting": "purified protein [2]; [9]", "result": "0.433 ± 0.0833", "unit": "s⁻¹"}
    ]},
    {"molecule": "B3", "values": [
      {"measurement": "Km", "setting": "purified protein [2]; [8]", "result": "130 ± 30", "unit": "µM"},
      {"measurement": "kcat", "setting": "purified protein [2]; [8]", "result": "0.217 ± 0.00667", "unit": "s⁻¹"},
      {"measurement": "Km", "setting": "purified protein [2]; [9]", "result": "100 ± 10", "unit": "µM"},
      {"measurement": "kcat", "setting": "purified protein [2]; [9]", "result": "0.283 ± 0.005", "unit": "s⁻¹"}
    ]}
  ]
}
